Assay results as given in patent EP4793288A1 (Imbiologics Corp., dated 2025).

Assays:
[1] = target: T1, HLA-G expressed on the cell surface (human, UniProt P17693 25-338); experiment: cell-based or functional assay
[2] = target: T2, Recombinant HLA-G antigen (human, UniProt P17693 25-308, limits assumed); experiment: BLI (Octet), antibody on anti-human IgG Fc capture biosensor, HLA-G antigen 100 to 1.56 nM
T2 construct: also called recombinant HLA-G protein

B2M = B2M (UniProt P61769 21-119); experiment: ELISA
[3] = target: T1, HLA-G expressed on the cell surface; experiment: flow cytometry on JEG-3 and SCH cells naturally expressing HLA-G, anti-human IgG PE

Sequence of B2M (P61769 21-119 limits assumed): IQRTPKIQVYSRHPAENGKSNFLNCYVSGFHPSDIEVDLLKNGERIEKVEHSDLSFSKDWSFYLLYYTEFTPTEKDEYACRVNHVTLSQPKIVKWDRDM

Row | Binder | EC50 (nM), ADCC reporter assay on SKOV-3/HLA-G cells, afucosylated antibody [1] [nM] | EC50 (nM), ADCC reporter assay on SKOV-3/HLA-G cells [1] [nM] | Kd [2] [nM] | koff [2] [s⁻¹] | binding result (B2M) | fold HLA-G binding activity against the positive control antibody [3] [fold]
1 | Afucosylated positive control antibody (antibody, human IgG1, kappa, V domains shown, afucosylated glycan) VH: QLQLQESGPGLVKPSETLSLTCTVSGGSISSSSTYWSWIRQPPGKGLEWIGGIAYSGSTYYNPSLKSRVTISVDTSKNQFSLKLSSVTAADTAVYYCARGVRRAVPEDYWGQGTLVTVSS VL: EIVLTQSPGTLSLSPGERATLSCQASQAVSSNYLAWYQQKPGQAPRLLIYGASSRATGIPDRFSGSGSGTDFTLTISRLEPEDFAVYYCQQVVHSPYTFGGGTKVEIKR | 0.13 |  |  |  |  | 
2 | Positive control antibody (antibody, human IgG1, kappa, V domains shown) VH: QLQLQESGPGLVKPSETLSLTCTVSGGSISSSSTYWSWIRQPPGKGLEWIGGIAYSGSTYYNPSLKSRVTISVDTSKNQFSLKLSSVTAADTAVYYCARGVRRAVPEDYWGQGTLVTVSS VL: EIVLTQSPGTLSLSPGERATLSCQASQAVSSNYLAWYQQKPGQAPRLLIYGASSRATGIPDRFSGSGSGTDFTLTISRLEPEDFAVYYCQQVVHSPYTFGGGTKVEIKR |  | 1.59 | 1.36 | 0.000157 |  | 
3 | T22A4 (antibody, human IgG1, kappa, V domains shown) VH: EVQLVESGGNWVQPGGSLRLSCAASGFSFRSYAMSWVRQAPGKGLEWVSSISGSGNSELYAGSVKGRFTISRDNSKNTLSLQLHSLRAEDTAMYYCAKFSAAVGFLPDYFDSWGQGTLVTVSS VL: ELTLTQSPSSLSASVGDRVTITCQASHDISKYLNWYQQKSGKAPKLLIYDASNLETGVPSRFSGSGSGTDFTLTISSLQPEDFATYYCQQSYRTPLTFGGGTKLEIKR |  |  |  |  | no binding | 
4 | T23D5 (antibody, human IgG1, kappa, V domains shown) VH: QVQLQESGPGLVKPSETLSLTCTVSGGSIDRSSHYWGWIRQPPGKGLEWLGSIYYSGITYYNPSLKSRVTISVDTSRNQFSLTLSSVTAADTAVYYCARHGSYDSWAGRYKWDRFDPWGQGTPVTVSS VL: ELQMTQSPSSLSASVGDRVTITCQASHDISKYLNWYQQKSGKAPKLLIYDASNLETGVPSRFSGSGSGTDFTLTISSLQPEDFATYYCQQSYSTPLTFGGGTKVEIKR |  |  |  |  | no binding | 
5 | 2F1CDRH3#10 (antibody, human IgG1, kappa, V domains shown) VH: EVQLVESGGGLVQPGGSLRLSCAASGFTFSSYAMSWVRQAPGKGLEWVSRISGSGGYKYYADSVKGRFTISRDNSKNTLYLQMNSLRAEDTAVYYCAKEGTSSYRGWMDVWGQGTLVTVSS VL: IQMTQSPSSLSASVGDRVTITCRASQSISNYLNWYQQKPGKAPKLLIYATSTLQSGVPSRFSGSGSGTDFTLTISSLQPEDFATYYCQQSYTTPWTFGQGTKVEIKR |  | 0.08 |  |  | no binding | ≥ 3
6 | Afucosylated 2F1CDRH3#26 (antibody, human IgG1, kappa, V domains shown, afucosylated glycan (antibody produced with 400 µM 2-deoxy-2-fluoro-L-fucose in the medium)) VH: EVQLVESGGGLVQPGGSLRLSCAASGFTFSSYAMSWVRQAPGKGLEWVSRISGSGSYTYYADSVKGRFTISRDNSKNTLYLQMNSLRAEDTAVYYCAKEGASSYRGWMDVWGQGTLVTVSS VL: DIQMTQSPSSLSASVGDRVTITCRASQSISNYLNWYQQKPGKAPKLLIYATSRLQSGVPSRFSGSGSGTDFTLTISSLQPEDFATYYCQQSHSTPWTFGQGTKVEIKR | 0.02 |  |  |  |  | 
7 | Afucosylated 2F1CDRH3#16 (antibody, human IgG1, kappa, V domains shown, afucosylated glycan (antibody produced with 400 µM 2-deoxy-2-fluoro-L-fucose in the medium)) VH: EVQLVESGGGLVQPGGSLRLSCAASGFTFSDYAMSWVRQAPGKGLEWVSRISSSGSYTYYADSVKGRFTISRDNSKNTLYLQMNSLRAEDTAVYYCAKEGTSKYRGWMDVWGQGTLVTVSS VL: not shown | 0.02 |  |  |  |  | 
8 | Afucosylated 2F1HS6LS#38 (antibody, V domains shown, afucosylated glycan (antibody produced with 400 µM 2-deoxy-2-fluoro-L-fucose in the medium)) VH: EVQLVESGGGLVQPGGSLRLSCAASGFTFSDYAMSWVRQAPGKGLEWVSRISQSGSYTYYADSVKGRFTISRDNSKNTLYLQMNSLRAEDTAVYYCAKEGTSSYRGWMDVWGQGTLVTVSS VL: not shown | 0.07 |  |  |  |  | 
9 | Afucosylated 2F1CDRH3#10 (antibody, human IgG1, kappa, V domains shown, afucosylated glycan (antibody produced with 400 µM 2-deoxy-2-fluoro-L-fucose in the medium)) VH: EVQLVESGGGLVQPGGSLRLSCAASGFTFSSYAMSWVRQAPGKGLEWVSRISGSGGYKYYADSVKGRFTISRDNSKNTLYLQMNSLRAEDTAVYYCAKEGTSSYRGWMDVWGQGTLVTVSS VL: IQMTQSPSSLSASVGDRVTITCRASQSISNYLNWYQQKPGKAPKLLIYATSTLQSGVPSRFSGSGSGTDFTLTISSLQPEDFATYYCQQSYTTPWTFGQGTKVEIKR | 0.01 |  |  |  |  | 
10 | 2F1_LS#26 (antibody, human IgG1, kappa, V domains shown) VH: EVQLVESGGGLVQPGGSLRLSCAASGFTFSSYAMSWVRQAPGKGLEWVSRISGSGGYIYYADSVKGRFTISRDNSKNTLYLQMNSLRAEDTAVYYCAKEGTSSYRGWMDVWGQGTLVTVSS VL: DIQMTQSPSSLSASVGDRVTITCRASQSISNYLNWYQQKPGKAPKLLIYATSRLQSGVPSRFSGSGSGTDFTLTISSLQPEDFATYYCQQSYSFPWTFGQGTKVEIKR |  |  | 0.698 | 2.82e-05 | no binding | 
11 | Afucosylated 2F1HS6LS#46 (antibody, human IgG1, kappa, V domains shown, afucosylated glycan (antibody produced with 400 µM 2-deoxy-2-fluoro-L-fucose in the medium)) VH: EVQLVESGGGLVQPGGSLRLSCAASGFTFSDYAMSWVRQAPGKGLEWVSRISQSGSYTYYADSVKGRFTISRDNSKNTLYLQMNSLRAEDTAVYYCAKEGTSSYRGWMDVWGQGTLVTVSS VL: DIQMTQSPSSLSASVGDRVTITCRASQSISNWLNWYQQKPGKAPKLLIYATSRLQSGVPSRFSGSGSGTDFTLTISSLQPEDFATYYCQQSYSTPWTFGQGTKVEIKR | 0.02 |  |  |  |  | 
12 | Afucosylated 2F1CDRH3#17 (antibody, human IgG1, kappa, V domains shown, afucosylated glycan (antibody produced with 400 µM 2-deoxy-2-fluoro-L-fucose in the medium)) VH: EVQLVESGGGLVQPGGSLRLSCAASGFTFSDYAMSWVRQAPGKGLEWVSRISGTGSYKYYADSVKGRFTISRDNSKNTLYLQMNSLRAEDTAVYYCAKEGTSTYRGWMDVWGQGTLVTVSS VL: DIQMTQSPSSLSASVGDRVTITCRASQSISNYLNWYQQKPGKAPKLLIYATSRLQSGVPSRFSGSGSGTDFTLTISSLQPEDFATYYCQQSYTTPWTFGQGTKVEIKR | 0.01 |  |  |  |  | 
13 | 2F1_LS#39 (antibody, human IgG1, kappa, V domains shown) VH: EVQLVESGGGLVQPGGSLRLSCAASGFTFSSYAMSWVRQAPGKGLEWVSRISGSGGYIYYADSVKGRFTISRDNSKNTLYLQMNSLRAEDTAVYYCAKEGTSSYRGWMDVWGQGTLVTVSS VL: DIQMTQSPSSLSASVGDRVTITCRASQSISRYLNWYQQKPGKAPKLLIYATSNLHSGVPSRFSGSGSGTDFTLTISSLQPEDFATYYCQQSYTSPWTFGQGTKVEIKR |  |  | 0.567 | 0.000106 | no binding | 
14 | 2F1HS6LS#46 (antibody, human IgG1, kappa, V domains shown) VH: EVQLVESGGGLVQPGGSLRLSCAASGFTFSDYAMSWVRQAPGKGLEWVSRISQSGSYTYYADSVKGRFTISRDNSKNTLYLQMNSLRAEDTAVYYCAKEGTSSYRGWMDVWGQGTLVTVSS VL: DIQMTQSPSSLSASVGDRVTITCRASQSISNWLNWYQQKPGKAPKLLIYATSRLQSGVPSRFSGSGSGTDFTLTISSLQPEDFATYYCQQSYSTPWTFGQGTKVEIKR |  | 0.15 |  |  | no binding | ≥ 3
15 | 2F1_LS#17 (antibody, human IgG1, kappa, V domains shown) VH: EVQLVESGGGLVQPGGSLRLSCAASGFTFSSYAMSWVRQAPGKGLEWVSRISGSGGYIYYADSVKGRFTISRDNSKNTLYLQMNSLRAEDTAVYYCAKEGTSSYRGWMDVWGQGTLVTVSS VL: DIQMTQSPSSLSASVGDRVTITCRASQSISNYLNWYQQKPGKAPKLLIYAASRLQSDVPSRFSGSGSGTDFTLTISSLQPEDFATYYCQQSYSTPWTFGQGTKVEIKR |  |  | 0.689 | 0.000138 | no binding | 
16 | 2F1 (antibody, human IgG1, kappa, V domains shown, produced in Expi293F cells) VH: EVQLVESGGGLVQPGGSLRLSCAASGFTFSSYAMSWVRQAPGKGLEWVSRISGSGGYIYYADSVKGRFTISRDNSKNTLYLQMNSLRAEDTAVYYCAKEGTSSYRGWMDVWGQGTLVTVSS VL: not shown |  |  | 0.523 | 0.00013 | no binding | 
17 | 2F1CDRH3#16 (antibody, human IgG1, kappa, V domains shown) VH: EVQLVESGGGLVQPGGSLRLSCAASGFTFSDYAMSWVRQAPGKGLEWVSRISSSGSYTYYADSVKGRFTISRDNSKNTLYLQMNSLRAEDTAVYYCAKEGTSKYRGWMDVWGQGTLVTVSS VL: not shown |  | 0.17 |  |  | no binding | ≥ 3
18 | 2F1CDRH3#26 (antibody, human IgG1, kappa, V domains shown) VH: EVQLVESGGGLVQPGGSLRLSCAASGFTFSSYAMSWVRQAPGKGLEWVSRISGSGSYTYYADSVKGRFTISRDNSKNTLYLQMNSLRAEDTAVYYCAKEGASSYRGWMDVWGQGTLVTVSS VL: DIQMTQSPSSLSASVGDRVTITCRASQSISNYLNWYQQKPGKAPKLLIYATSRLQSGVPSRFSGSGSGTDFTLTISSLQPEDFATYYCQQSHSTPWTFGQGTKVEIKR |  | 0.1 |  |  | no binding | ≥ 3
19 | 2F1CDRH3#17 (antibody, human IgG1, kappa, V domains shown) VH: EVQLVESGGGLVQPGGSLRLSCAASGFTFSDYAMSWVRQAPGKGLEWVSRISGTGSYKYYADSVKGRFTISRDNSKNTLYLQMNSLRAEDTAVYYCAKEGTSTYRGWMDVWGQGTLVTVSS VL: DIQMTQSPSSLSASVGDRVTITCRASQSISNYLNWYQQKPGKAPKLLIYATSRLQSGVPSRFSGSGSGTDFTLTISSLQPEDFATYYCQQSYTTPWTFGQGTKVEIKR |  | 0.07 |  |  | no binding | ≥ 3
20 | 2F1_LS#24 (antibody, human IgG1, kappa, V domains shown) VH: EVQLVESGGGLVQPGGSLRLSCAASGFTFSSYAMSWVRQAPGKGLEWVSRISGSGGYIYYADSVKGRFTISRDNSKNTLYLQMNSLRAEDTAVYYCAKEGTSSYRGWMDVWGQGTLVTVSS VL: DIQMTQSPSSLSASVGDRVTITCRASQSISNWLNWYQQKPGKAPKLLIYAASRLQSGVPSRFSGSGSGTDFTLTISSLQPEDFATYYCQQSYTSPWTFGQGTKVEIKR |  |  | 0.553 | 0.00012 | no binding | 
